Columns and labels:
oxidized His–GSTF2 = molecular target: T1, oxidized His–GSTF2 (A. thaliana, UniProt P46422 1-212, oxidized (positions not stated for this sample)); experiment: co-IP; recombinant His–flag–MSRB7 and oxidized His–GSTs incubated with rabbit anti-flag antibody in IP buffer (15 mM HEPES pH 7.4, 1 mM EDTA, 1 mM DTT, 10 mM MgCl2, 30 mM KCl) 1 h at room temperature; Protein G–Sepharose; blot with mouse anti-His antibody; conditions: both partners purified
T1 construct: Glutathione S-transferase F2 (GSTF2), A. thaliana, locus At4g02520; cloned into pET-53-DEST; How it was oxidized is told only for the activity assay (0.5 mM HOCl, 40 min, stopped with 5 mM Met); also called recombinant GSTF2; MetO–GSTF2
T1 sequence (looked up): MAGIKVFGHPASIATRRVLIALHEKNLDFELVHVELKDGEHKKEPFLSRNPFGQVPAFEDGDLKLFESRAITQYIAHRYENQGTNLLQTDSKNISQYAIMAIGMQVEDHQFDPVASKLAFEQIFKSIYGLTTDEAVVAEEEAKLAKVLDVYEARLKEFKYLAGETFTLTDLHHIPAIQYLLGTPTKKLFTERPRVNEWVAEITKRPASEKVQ

oxidized His–GSTF3 = molecular target: T2, oxidized His–GSTF3 (A. thaliana, UniProt Q9SLM6 1-212, oxidized (positions not stated for this sample)); experiment: as above; conditions: both partners purified
T2 construct: Glutathione S-transferase F3 (GSTF3), A. thaliana, locus At2g02930; cloned into pET-53-DEST; How it was oxidized is told only for the activity assay (0.5 mM HOCl, 40 min, stopped with 5 mM Met); also called recombinant GSTF3; MetO–GSTF3
T2 sequence (looked up): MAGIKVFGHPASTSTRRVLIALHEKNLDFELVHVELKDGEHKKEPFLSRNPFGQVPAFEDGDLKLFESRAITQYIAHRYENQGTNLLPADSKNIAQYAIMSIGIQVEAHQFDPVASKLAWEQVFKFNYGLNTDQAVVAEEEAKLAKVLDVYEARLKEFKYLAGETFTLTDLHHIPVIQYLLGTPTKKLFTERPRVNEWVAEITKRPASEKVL

B1: His–flag–MSRB7 (enzyme, A. thaliana, UniProt Q8VY86 1-144, looked up)
chain: MAAMTAAAVPATGSFQKQDEEWRAVLSPEQFRVLRLKGTDKRGKGEFTKKFEEGTYSCAGCGTALYKSTTKFDSGCGWPAFFDAIPGAIKQTPEAGGRRMEITCAVCDGHLGHVFKGEGYSTPTDQRHCVNSVSLKFSSAGSSQ
notes: Methionine sulfoxide reductase B7 (MSRB7), A. thaliana, locus At4g21830; N terminus fused with a flag tag, cloned into pET-53-DEST; also called recombinant MSRB7; not shown: flag, N-terminal, kept
B1: binds (oxidized His–GSTF2); binds (oxidized His–GSTF3).

— publication PMC4144780, “MSRB7 reverses oxidation of GSTF2/3 to confer tolerance of Arabidopsis thaliana to oxidative stress” (Journal of Experimental Botany, 2014)
